# T1: latent membrane protein 2 (LMP-2) from the Epstein Barr Virus (EBV) peptide on HLA-A*02:01 (human)
# T1 peptide: CLGGLLTMV
# B1: EBVa14-p2A-Vb7.7 (LMP-2-specific TCR of SEQ ID No. 8) (TCR, V domains shown)
# Valpha: AQKITQTQPGMFVQEKEAVTLDCTYDTSDQSYGLFWYKQPSSGEMIFLIYQGSYDEQNATEGRYSLNFQKARKSANLVISASQLGDSAMYFCAMREGSGSARQLTFGSGTQLTVLP
# Vbeta: GAGVSQSPRYKVTKRGQDVTLRCDPISSHATLYWYQQALGQGPEFLTYFNYEAQPDKSGLPSDRFSAERPEGSISTLTIQRTEQRDSAMYRCASSLGPAGIQETQYFGPGTRLLVL
# Target: T1, latent membrane protein 2 (LMP-2) from …
# Test: multimer staining
binder,measurement,value
B1,binding result,recognises
